Experimental data taken from PMC10327126.

Molecular target: GST-NTF2L-F33W (human)
Assay: SPR

Substance: N_(1–25)-WT peptide (from UniProt P0DTC9 1-25)
- Kd: 1920 nM
